First the molecules themselves.
B1: WT BRPF1 bromodomain (domain or fragment)
chain: MEMQLTPFLILLRKTLEQLQEKDTGNIFSEPVPLSEVPDYLDHIKKPMDFFTMKQNLEAYRYLNFDDFEEDFNLIVSNCLKYNAKDTIFYRAAVRLREQGGAVLRQARRQAEKMG
notes: bromodomain of bromodomain-PHD finger protein 1 (BRPF1); vector pNIC28-Bsa4; also called bromodomain-PHD finger protein 1 bromodomain; source: E. coli One Shot BL21 star (DE3), purified (Ni-NTA, Superdex-75)

Assay [1] concerns the target histone H4K5acK8ac peptide 2 (acetyl-lysine at K5 and K8). Description: ITC; peptide (1.5 to 1.8 mM, syringe) injected into protein (80 to 100 μM, cell); 15 °C; 50 mM Hepes pH 7.5, 200 mM NaCl, 5% glycerol; single-binding site model. To be noted: both partners purified.
For the assay “WT BRPF1 bromodomain”, the target named is B1. Described as above. To be noted: both partners purified.

This is an account of results in article PMC10789646, “Uncovering the non-histone interactome of the BRPF1 bromodomain using site-specific azide-acetyllysine photochemistry” (The Journal of Biological Chemistry, 2023).

Where no end group is shown, it is not given here.

In assay [1], B1 yielded a Kd of 24.6 ± 3.1 µM.

B2: BRPF1 bromodomain N651AzF (domain or fragment)
chain: MEMQLTPFLILLRKTLEQLQEKDTGFIFSEPVPLSEVPDYLDHIKKPMDFFTMKQNLEAYRYLNFDDFEEDFNLIVSNCLKYNAKDTIFYRAAVRLREQGGAVLRQARRQAEKMG
modifications: 4-azido-L-phenylalanine (AzF) at 651
notes: bromodomain of BRPF1 with the unnatural amino acid 4-azido-L-phenylalanine in place of N651; also called BRPF1-N651AzF; engineered BRPF1 bromodomain; source: E. coli One Shot BL21 Star (DE3) with pEVOL-pAzF (amber suppression), purified (Ni-NTA, Superdex-75); not shown: 6xHis, N-terminal, kept
In assay [1], B2 gave a Kd of 21.6 ± 2.1 µM.

B3: diacetylated ILF3 peptide 8 (peptide)
peptide: RVGLVAK(Ac)GLLLK(Ac)G
notes: holds the KGLLLK (100-105) motif; also called RVGLVAKacGLLLKacG 8; source: synthetic peptide (GL Biochem Ltd and S. Biochem Ltd, HPLC purified)
In the assay with WT BRPF1 bromodomain, B3 gave a Kd of 250 ± 10.2 µM.
